In patent publication US20240425569A1 (VISTERRA, published 2024):
Changes are numbered by the printed parent chain. Numbers in names are those of the source. Where “and” joins values, the source holds several entries; their conditions need not be identical. Equal values may be shown once. Read-outs that look alike come from different tables or passages of the source.

Assays:
[1] = biological target: T1, EDIII-DV1 (E protein domain III of dengue virus serotype DV-1) (dengue virus serotype DV-1, UniProt P17763 573-680)
T1 construct: also called DENV-1; EDIII of DV-1
T1 chain: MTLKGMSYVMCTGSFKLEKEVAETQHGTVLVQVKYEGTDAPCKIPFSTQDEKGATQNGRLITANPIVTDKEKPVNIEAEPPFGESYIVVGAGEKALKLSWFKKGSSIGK

[2] = biological target: T2, EDIII-DV3 (E protein domain III of dengue virus serotype DV-3) (dengue virus serotype DV-3, UniProt P27915 571-678)
T2 construct: also called DENV-3; EDIII of DV-3

[3] = biological target: T3, EDIII-DV4 (E protein domain III of dengue virus serotype DV-4) (dengue virus serotype DV-4, UniProt P09866 572-679)
T3 construct: also called DENV-4

[4] = biological target: T3, EDIII-DV4 (E protein domain III of …); remark: listed apart in the source
[5] = biological target: T4, EDIII-DV2 (E protein domain III of dengue virus serotype DV-2) (dengue virus serotype DV-2, UniProt P14337 573-677)
T4 construct: also called DENV-2; EDIII of DV-2

[6] = biological target: T3, EDIII-DV4 (E protein domain III of …); remark: listed apart in the source
[7] = biological target: T2, EDIII-DV3 (E protein domain III of …); remark: listed apart in the source
[8] = biological target: T3, EDIII-DV4 (E protein domain III of …); remark: listed apart in the source
[9] = biological target: T1, EDIII-DV1 (E protein domain III of …); assay: competition ELISA
[10] = biological target: T4, EDIII-DV2 (E protein domain III of …); assay: competition ELISA
[11] = biological target: T2, EDIII-DV3 (E protein domain III of …); assay: competition ELISA
[12] = biological target: T5, New Caledonia/2009 (serotype IV EDIII); assay: Kd table, method not stated; Ag DENV-4 NC
T5 construct: also called ED3-DV4/NewCal09; DENV-4 NC
T5 E protein domain III (EDIII): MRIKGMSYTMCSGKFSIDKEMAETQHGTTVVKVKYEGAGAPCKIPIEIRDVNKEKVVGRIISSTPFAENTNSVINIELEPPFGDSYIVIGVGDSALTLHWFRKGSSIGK

[13] = biological target: T6, New Guinea/1944 (NGC)* (serotype II EDIII) (Dengue virus 2); assay: Kd table, method not stated; Ag DENV-2 NGC
T6 construct: isolated EDIII protein; also called EDIII of DENV-2 NGC

[14] = biological target: T7, Philippines/1956 (H87)* (serotype III EDIII) (Dengue virus 3)
T7 construct: isolated EDIII protein

[15] = biological target: T8, Nicaragua/2010 (serotype III EDIII)
T8 construct: also called ED3-DV3/Nicaragua10; DENV-3 Nic
T8 E protein domain III (EDIII): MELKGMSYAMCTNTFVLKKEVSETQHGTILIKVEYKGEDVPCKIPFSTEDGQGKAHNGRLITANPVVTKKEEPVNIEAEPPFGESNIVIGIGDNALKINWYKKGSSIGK

[16] = biological target: T9, Mexico/1977 (BC287/97)* (serotype IV EDIII) (Dengue virus 4); assay: Kd table, method not stated; Ag DENV-4 BC2
T9 construct: isolated EDIII protein; also called EDIII of DENV-4 Mexico/1997 (BC287/97); DENV-4 BC2

[17] = biological target: T10, Peru/1995 (serotype II EDIII); assay: Kd table, method not stated; Ag DENV-2 Peru
T10 construct: also called ED3-DV2/Peru95; DENV-2 Peru

[18] = biological target: T11, Singapore/2008 (serotype II EDIII); assay: Kd table, method not stated; Ag DENV-2 Sing
T11 construct: also called ED3-DV2/Sing08; DENV-2 Sing

[19] = biological target: T12, Singapore/2009 (serotype III EDIII)
T12 construct: also called ED3-DV3/Sing09; DENV-3 Sing
T12 E protein domain III (EDIII): T8 E protein domain III (EDIII) with T12Q, T14A, V40A, N94K

[20] = biological target: ED3-DV4/H241/Phil56 (EDIII of DENV-4 strain H241) (dengue virus serotype DENV-4, strain …, UniProt Q58HT7 572-679); assay: Kd table, method not stated; Ag DENV-4 Phil
[21] = biological target: T13, Singapore/2010 (serotype IV EDIII); assay: Kd table, method not stated; Ag DENV-4 Sing
T13 construct: also called ED3-DV4/Sing10; DENV-4 Sing
T13 E protein domain III (EDIII): T5 E protein domain III (EDIII) with I44V, I74T

B1: antibody B48 (antibody, V domains shown)
VH: QVQLVQSGAEVKKPGASVKVSCKAGFNIKDTYMSWVRQAPEQGLEWMGRIDPENGDTKYDPKLQGRVTMTADTSTNTAYMELRSLRSDDTAVYYCARGWEGFAYWGQGTLVTVSS
VL: DIVMTQSPASLAVSLGERATISCRASENVDKYGNSFMHWYQQKPGQPPKLLIYRASELQWGVPDRFSGSGSGTDFTLTISSLQAEDVAVYYCQRSNEVPWTFGQGTKLEIK
notes: also called mAb B48
[1]
  Kd: 0.123 nM
[2]
  Kd: 8 nM
[3]
  Kd: 27.6 nM
[4]
  Kd: 19.3 nM

B2: B48+InsE6 (antibody, V domains shown)
VH: B1 VH with Q1V, V2Q, Q3L, L4V, V5E
VL: B1 VL
[4]
  Kd: 26.9 nM

B3: antibody A48 (antibody, V domains shown)
VH: QVQLVQSGAEVKKPGASVKVSCKASGFNIKDTYMSWVRQAPEQGLEWMGRIDPENGDTKYDPKLQGRVTMTADTSTNTAYMELRSLRSDDTAVYYCARGWEGFAYWGQGTLVTVSS
VL: B1 VL
[1]
  Kd: < 0.1 nM
[2]
  Kd: 5.8 nM

B4: B48+V2L (antibody, V domains shown)
VH: B1 VH with V2L
VL: B1 VL
[4]
  Kd: 23.6 nM

B5: A68 (A48 + A98V) (antibody, V domains shown)
VH: B3 VH with A97V
VL: B1 VL
[5]
  Kd: < 0.1 nM
[2]
  Kd: 3 nM
[3]
  Kd: 13.1 nM

B6: A48+V2L (antibody, V domains shown)
VH: B3 VH with V2L, T32V
VL: B1 VL
[4]
  Kd: 21.3 nM

B7: D168 (antibody, V domains shown)
VH: B3 VH with F27Y, T32V
VL: B1 VL
[6]
  Kd: 324 nM

B8: C128 (antibody, V domains shown)
VH: B3 VH with T32V, A97S
VL: B1 VL
[7]
  Kd: 0.63 nM
[8]
  Kd: 18.7 nM

B9: antibody D148 (antibody, V domains shown)
VH: B3 VH with G26Y, T32V
VL: B1 VL
[6]
  Kd: 18 nM

B10: antibody D108 (antibody, V domains shown)
VH: B3 VH with G26Y, F27W, T32V
VL: B1 VL
[6]
  Kd: 18.3 nM

B11: antibody C98 (antibody, V domains shown)
VH: B3 VH with T32V, A97V
VL: B1 VL
[9]
  Kd: < 0.1 nM
[10]
  Kd: < 0.1 nM
[11]
  Kd: 1.29 nM
[7]
  Kd: 1.21 nM

B12: D178 (antibody, V domains shown)
VH: B1 VH with T31V, A96V
VL: B1 VL
[7]
  Kd: 1.05 nM
[8]
  Kd: 4.67 nM

B13: A48+InsE6 (antibody, V domains shown)
VH: B3 VH with Q1V, V2Q, Q3L, L4V, V5E, T32V
VL: B1 VL
[4]
  Kd: 19.5 nM

B14: antibody D128 (antibody, V domains shown)
VH: B3 VH with G26A, F27W, T32V
VL: B1 VL
[6]
  Kd: 20.8 nM

B15: antibody A11 (antibody, V domains shown)
VH: VKLLEQSGAELVKPGASVRLSCTASGFNIKDTYMSWVKQRPEQGLEWIGRIDPENGDTKYDPKFQGKATITADTSSNTAYLHLSSLTSGDTAVYYCSRGWEGFAYWGQGTLVTVSA
VL: ELVMTQTPASLAVSLGQRATISCRASENVDKYGNSFMHWYQQKAGQPPKLLIYRASELQWGIPARFSGSGSRTDFTLTINPVEADDVATYFCQRSNEVPWTFGGGTKLEIK
notes: also called mAb A11; 4E5A
[9]
  Kd: 0.35 nM and 0.269 nM
[11]
  Kd: 16.8 nM and 18 nM
[12]
  Kd: 202 nM
[1]
  Kd: 0.269 nM
[5]
  Kd: < 0.1 nM
[2]
  Kd: 18 nM
[13]
  Kd: < 0.1 nM
[14]
  Kd: 14.1 nM
[15]
  Kd: 32.1 nM
[16]
  Kd: 86.2 nM
[17]
  Kd: 0.39 nM
[18]
  Kd: < 0.1 nM
[19]
  Kd: 7.5 nM
[20]
  Kd: 5080 nM
[21]
  Kd: 136 nM

B16: C41 (antibody, V domains shown)
VH: B15 VH with T32V
VL: B15 VL
[4]
  Kd: 2.56 nM
